From article PMC13078783

Target: GFP-MAP7 (UniProt O88735)
Experiment: co-IP; HeLa cells transfected with GFP/GFP-MAP7, HA-KLC2 and HA-KIF5C (WT, ElbowLock, DeltaElbow); GFP-TRAP beads; western blot with anti-GFP and anti-HA

Chain of GFP-MAP7 (O88735 whole entry): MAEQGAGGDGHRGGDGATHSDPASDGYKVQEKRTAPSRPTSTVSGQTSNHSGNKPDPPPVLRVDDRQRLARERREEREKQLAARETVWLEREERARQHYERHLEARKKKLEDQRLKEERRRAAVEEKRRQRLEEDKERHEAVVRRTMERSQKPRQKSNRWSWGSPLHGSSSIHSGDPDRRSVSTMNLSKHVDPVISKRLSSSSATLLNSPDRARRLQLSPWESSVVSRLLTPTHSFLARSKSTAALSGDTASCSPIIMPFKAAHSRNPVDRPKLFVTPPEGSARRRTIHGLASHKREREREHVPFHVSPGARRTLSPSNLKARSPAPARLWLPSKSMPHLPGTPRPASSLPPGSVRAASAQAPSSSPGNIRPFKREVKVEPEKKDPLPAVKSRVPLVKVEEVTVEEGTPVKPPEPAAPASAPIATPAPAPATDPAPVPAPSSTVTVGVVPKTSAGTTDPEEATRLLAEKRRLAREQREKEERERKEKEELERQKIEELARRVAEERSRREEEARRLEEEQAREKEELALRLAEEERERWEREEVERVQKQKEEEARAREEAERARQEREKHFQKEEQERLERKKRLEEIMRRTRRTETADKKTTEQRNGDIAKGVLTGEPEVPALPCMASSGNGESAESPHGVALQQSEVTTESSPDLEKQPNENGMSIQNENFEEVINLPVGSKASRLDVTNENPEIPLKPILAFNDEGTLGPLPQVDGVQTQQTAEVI

DeltaElbow kinesin-1 complex (HA-KIF5C DeltaElbow / HA-KLC2) (from UniProt P56536 1-955; O88448 1-599)
fold increase of kinesin-1 co-precipitated with GFP-MAP7 against wild-type or ElbowLock: 5 fold
